This data set concerns Escherichia coli TOP10. Put plainly: shrunken log2 fold change of peptide-encoding DNA abundance (4.5 h post-induction vs induction); higher = less antimicrobial activity (less host growth inhibition). To be noted: time post-induction: 4.5 h; library: site-saturation at positions 5, 18, 19, 20.
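Further: peptides expressed intracellularly from a pBAD plasmid library in pooled LB shake-flask culture, induced with 0.3% L-arabinose, DNA abundance read by NGS, three biological replicates, DESeq2 with apeglm shrinkage.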

With RRIRLRPPRLPRPRPRPLRPPRP, the “shrunken log2 fold change” value came out at 0.525.
As to RRIRRRPPRLPRPRPRPHQRPRP, the “shrunken log2 fold change” value came out at 0.14.
On to RRIRARPPRLPRPRPRPKWIPRP, for which the “shrunken log2 fold change” value came out at 0.0218.
For RRIRSRPPRLPRPRPRPHMYPRP, the “shrunken log2 fold change” value is -0.37.
As for RRIRARPPRLPRPRPRPRLNPRP, the “shrunken log2 fold change” value was determined as 0.316.
Turning to RRIRTRPPRLPRPRPRPPVWPRP, the “shrunken log2 fold change” value is 0.0152.
On to RRIRLRPPRLPRPRPRPWVWPRP, for which the “shrunken log2 fold change” value was -0.199.
To RRIRIRPPRLPRPRPRPWLAPRP belongs -0.12; to RRIRIRPPRLPRPRPRPICKPRP, -0.199.
To RRIRVRPPRLPRPRPRPYYMPRP belongs -0.997; to RRIRTRPPRLPRPRPRPLFNPRP, -0.692; to RRIRYRPPRLPRPRPRPVPRPRP, 0.204.
For the sequence RRIRRRPPRLPRPRPRPLFMPRP, the “shrunken log2 fold change” value was 0.0797.
As to RRIRDRPPRLPRPRPRPSIWPRP, the “shrunken log2 fold change” value is 0.262.
Take RRIRPRPPRLPRPRPRPVKGPRP: the “shrunken log2 fold change” value came out at 0.203.
Regarding RRIRQRPPRLPRPRPRPLNQPRP, the “shrunken log2 fold change” value was -0.155.
Turning to RRIRMRPPRLPRPRPRPQMKPRP, the “shrunken log2 fold change” value stood at 0.518.
Regarding RRIRERPPRLPRPRPRPGWNPRP, the “shrunken log2 fold change” value came to 0.277.
To RRIRDRPPRLPRPRPRPMLQPRP belongs 0.0454; to RRIRTRPPRLPRPRPRPTNRPRP, 0.0146.
For the sequence RRIRIRPPRLPRPRPRPIFRPRP, the “shrunken log2 fold change” value is -0.013.
As for RRIRFRPPRLPRPRPRPRRAPRP, the “shrunken log2 fold change” value is 0.678.
Regarding RRIRVRPPRLPRPRPRPLQVPRP, the “shrunken log2 fold change” value was -0.0194.
For the sequence RRIRCRPPRLPRPRPRPYQCPRP, the “shrunken log2 fold change” value is -0.133.
Take RRIRQRPPRLPRPRPRPPYHPRP: the “shrunken log2 fold change” value was -0.208.
Consider RRIRVRPPRLPRPRPRPDLFPRP, for which the “shrunken log2 fold change” value is -0.045.
For RRIRERPPRLPRPRPRPCHWPRP, the “shrunken log2 fold change” value was -0.0135.
For the sequence RRIRRRPPRLPRPRPRPQHWPRP, the “shrunken log2 fold change” value was 0.179.
In the case of RRIRWRPPRLPRPRPRPYECPRP, the “shrunken log2 fold change” value is -0.148.
Take RRIRSRPPRLPRPRPRPFLHPRP: the “shrunken log2 fold change” value is -0.174.
Consider RRIRNRPPRLPRPRPRPWVSPRP, for which the “shrunken log2 fold change” value came out at 0.069.
As to RRIRGRPPRLPRPRPRPYDVPRP, the “shrunken log2 fold change” value was -0.00115.
RRIRPRPPRLPRPRPRPNKFPRP: the “shrunken log2 fold change” value was -0.173.
Regarding RRIRERPPRLPRPRPRPRCHPRP, the “shrunken log2 fold change” value is -0.464.
As for RRIRSRPPRLPRPRPRPTDEPRP, the “shrunken log2 fold change” value is -0.148.
For RRIRTRPPRLPRPRPRPDHNPRP the value was -0.471.
In the case of RRIRIRPPRLPRPRPRPTELPRP, the “shrunken log2 fold change” value is -0.0944.
Regarding RRIRFRPPRLPRPRPRPKALPRP, the “shrunken log2 fold change” value amounted to 0.191.
Consider RRIRIRPPRLPRPRPRPDMGPRP, for which the “shrunken log2 fold change” value was -0.0742.
Regarding RRIRLRPPRLPRPRPRPVPGPRP, the “shrunken log2 fold change” value was determined as 0.113.
Turning to RRIRARPPRLPRPRPRPQPMPRP, the “shrunken log2 fold change” value was determined as 0.229.
For RRIRRRPPRLPRPRPRPGPRPRP the value was 0.917.
Regarding RRIRWRPPRLPRPRPRPRKWPRP, the “shrunken log2 fold change” value was 0.526.
For RRIRIRPPRLPRPRPRPNPTPRP the value was -0.17; for RRIRFRPPRLPRPRPRPIWQPRP, -0.146; for RRIRRRPPRLPRPRPRPSDWPRP, -0.302.
RRIRHRPPRLPRPRPRPIHRPRP: the “shrunken log2 fold change” value was -0.147.
With RRIRVRPPRLPRPRPRPKVAPRP, the “shrunken log2 fold change” value stood at 0.12.
RRIRDRPPRLPRPRPRPVTIPRP: the “shrunken log2 fold change” value was -0.0184.
Turning to RRIRMRPPRLPRPRPRPKIQPRP, the “shrunken log2 fold change” value worked out at 0.158.
In the case of RRIRGRPPRLPRPRPRPCHNPRP, the “shrunken log2 fold change” value came to 0.033.
With RRIRDRPPRLPRPRPRPYRQPRP, the “shrunken log2 fold change” value was 0.0922.
For the sequence RRIRQRPPRLPRPRPRPKDFPRP, the “shrunken log2 fold change” value was -0.00088.
With RRIRKRPPRLPRPRPRPRGWPRP, the “shrunken log2 fold change” value turned out to be 0.792.
For the sequence RRIRLRPPRLPRPRPRPQEWPRP, the “shrunken log2 fold change” value came out at 0.0562.
To RRIRKRPPRLPRPRPRPMTCPRP belongs 0.0478.
Regarding RRIRIRPPRLPRPRPRPVNLPRP, the “shrunken log2 fold change” value is -0.116.
With RRIRNRPPRLPRPRPRPMMCPRP, the “shrunken log2 fold change” value is -0.0344.
Take RRIRARPPRLPRPRPRPWFKPRP: the “shrunken log2 fold change” value was -0.0366.
For RRIRNRPPRLPRPRPRPALGPRP, the “shrunken log2 fold change” value is -0.361.
To RRIRARPPRLPRPRPRPHSYPRP belongs 0.0128.
RRIRHRPPRLPRPRPRPNVCPRP: the “shrunken log2 fold change” value is -0.0562.
RRIRKRPPRLPRPRPRPDYWPRP: the “shrunken log2 fold change” value was 0.0865.
In the case of RRIRPRPPRLPRPRPRPKSCPRP, the “shrunken log2 fold change” value came to 0.0347.
For RRIRWRPPRLPRPRPRPSGKPRP, the “shrunken log2 fold change” value is -0.0778.
Regarding RRIRARPPRLPRPRPRPHCSPRP, the “shrunken log2 fold change” value is -0.131.
For the sequence RRIRLRPPRLPRPRPRPTHQPRP, the “shrunken log2 fold change” value stood at 0.592.
For the sequence RRIRVRPPRLPRPRPRPPRAPRP, the “shrunken log2 fold change” value is 0.641.
On to RRIRCRPPRLPRPRPRPWISPRP, for which the “shrunken log2 fold change” value was -0.085.
As to RRIRHRPPRLPRPRPRPLFWPRP, the “shrunken log2 fold change” value turned out to be 0.274.
For RRIRMRPPRLPRPRPRPRWWPRP the value was 1.11.
For RRIRWRPPRLPRPRPRPGGHPRP, the “shrunken log2 fold change” value came to 0.494.
To RRIRIRPPRLPRPRPRPVVFPRP belongs 0.0165; to RRIRGRPPRLPRPRPRPNFMPRP, 0.0686.
Consider RRIRNRPPRLPRPRPRPGGYPRP, for which the “shrunken log2 fold change” value is -0.0538.
On to RRIRQRPPRLPRPRPRPRRIPRP, for which the “shrunken log2 fold change” value was -0.27.
With RRIRDRPPRLPRPRPRPMLRPRP, the “shrunken log2 fold change” value stood at 0.0179.
For RRIRMRPPRLPRPRPRPTQVPRP the value was 1.17; for RRIRPRPPRLPRPRPRPGMMPRP, -0.111; for RRIRWRPPRLPRPRPRPLLMPRP, 0.284.
As for RRIRIRPPRLPRPRPRPTWIPRP, the “shrunken log2 fold change” value is -0.415.
Consider RRIRLRPPRLPRPRPRPDNWPRP, for which the “shrunken log2 fold change” value was -0.0493.
Take RRIRMRPPRLPRPRPRPEGHPRP: the “shrunken log2 fold change” value was found to be 2.72.
To RRIRGRPPRLPRPRPRPFWHPRP belongs 0.297.
Turning to RRIRPRPPRLPRPRPRPDKLPRP, the “shrunken log2 fold change” value was 0.038.
As for RRIRRRPPRLPRPRPRPAQEPRP, the “shrunken log2 fold change” value turned out to be 0.146.
Consider RRIRQRPPRLPRPRPRPQLPPRP, for which the “shrunken log2 fold change” value was -0.23.
In the case of RRIRHRPPRLPRPRPRPQDCPRP, the “shrunken log2 fold change” value was -0.01.
RRIRVRPPRLPRPRPRPCQWPRP: the “shrunken log2 fold change” value was -0.0851.
For the sequence RRIRLRPPRLPRPRPRPCNLPRP, the “shrunken log2 fold change” value is 0.034.
Turning to RRIRSRPPRLPRPRPRPYDVPRP, the “shrunken log2 fold change” value came to 0.0192.
Take RRIRCRPPRLPRPRPRPSWGPRP: the “shrunken log2 fold change” value worked out at 0.258.
To RRIRARPPRLPRPRPRPAEVPRP belongs 0.129; to RRIRWRPPRLPRPRPRPGLTPRP, 0.0693.
To RRIRCRPPRLPRPRPRPKPIPRP belongs 0.0598; to RRIRGRPPRLPRPRPRPIIHPRP, -0.261.
RRIRERPPRLPRPRPRPNNSPRP: the “shrunken log2 fold change” value is -0.693.
With RRIRTRPPRLPRPRPRPRYQPRP, the “shrunken log2 fold change” value is -0.0799.
As for RRIRFRPPRLPRPRPRPFWPPRP, the “shrunken log2 fold change” value was 0.234.
As to RRIRWRPPRLPRPRPRPWIMPRP, the “shrunken log2 fold change” value is -0.0381.
For RRIRMRPPRLPRPRPRPGSKPRP, the “shrunken log2 fold change” value was 0.479.
In the case of RRIRSRPPRLPRPRPRPCYKPRP, the “shrunken log2 fold change” value is -0.281.
Consider RRIRKRPPRLPRPRPRPSHRPRP, for which the “shrunken log2 fold change” value is -0.0303.
On to RRIRERPPRLPRPRPRPMSTPRP, for which the “shrunken log2 fold change” value is -0.516.
For RRIRIRPPRLPRPRPRPQNGPRP, the “shrunken log2 fold change” value is -0.294.
With RRIRTRPPRLPRPRPRPHGQPRP, the “shrunken log2 fold change” value is -0.0788.
RRIRYRPPRLPRPRPRPENAPRP: the “shrunken log2 fold change” value was 0.0607.
Consider RRIRCRPPRLPRPRPRPYIIPRP, for which the “shrunken log2 fold change” value is -0.985.
In the case of RRIRHRPPRLPRPRPRPFYHPRP, the “shrunken log2 fold change” value was -0.126.
For RRIRDRPPRLPRPRPRPCMYPRP the value was 0.126.
On to RRIRMRPPRLPRPRPRPVQLPRP, for which the “shrunken log2 fold change” value amounted to 0.0278.
For RRIRERPPRLPRPRPRPMCNPRP the value was -0.0237.
RRIRIRPPRLPRPRPRPPECPRP: the “shrunken log2 fold change” value is -0.17.
For RRIRNRPPRLPRPRPRPPTGPRP the value was 0.154.
To RRIRWRPPRLPRPRPRPSMPPRP belongs -0.423; to RRIRGRPPRLPRPRPRPNRHPRP, 0.231; to RRIRTRPPRLPRPRPRPQTLPRP, -0.278.
For RRIRQRPPRLPRPRPRPNITPRP the value was -0.495.
For RRIRSRPPRLPRPRPRPIAWPRP, the “shrunken log2 fold change” value is -0.0861.
With RRIRWRPPRLPRPRPRPMPGPRP, the “shrunken log2 fold change” value was found to be 0.0623.
For RRIRARPPRLPRPRPRPKFTPRP the value was 0.00836; for RRIRFRPPRLPRPRPRPWIDPRP, -0.0232; for RRIRCRPPRLPRPRPRPGVRPRP, 0.32.
Regarding RRIRHRPPRLPRPRPRPVWSPRP, the “shrunken log2 fold change” value was -0.103.
For the sequence RRIRTRPPRLPRPRPRPNPCPRP, the “shrunken log2 fold change” value worked out at 0.0479.
